# Laboratory results reported in patent publication US20220380471A1 (US Dept. of Health and Human Services, published 2022).
# T1: rat B7H3-His (rat, UniProt Q7TPB4 29-244, limits assumed)
# T1 construct: not shown: His tag
# T1 sequence (looked up): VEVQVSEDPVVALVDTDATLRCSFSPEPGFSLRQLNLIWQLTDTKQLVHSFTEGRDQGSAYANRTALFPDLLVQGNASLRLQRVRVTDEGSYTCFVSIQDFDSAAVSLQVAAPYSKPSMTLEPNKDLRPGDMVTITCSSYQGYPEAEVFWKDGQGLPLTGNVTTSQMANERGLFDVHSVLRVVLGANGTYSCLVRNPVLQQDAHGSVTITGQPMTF
# T2: recombinant human B7H3-Fc protein (human, UniProt Q5ZPR3 29-466, limits assumed)
# T2 construct: 154 kDa non-reduced, 77 kDa reduced; also called hB7H3-Fc; not shown: Fc part
# T2 sequence (looked up): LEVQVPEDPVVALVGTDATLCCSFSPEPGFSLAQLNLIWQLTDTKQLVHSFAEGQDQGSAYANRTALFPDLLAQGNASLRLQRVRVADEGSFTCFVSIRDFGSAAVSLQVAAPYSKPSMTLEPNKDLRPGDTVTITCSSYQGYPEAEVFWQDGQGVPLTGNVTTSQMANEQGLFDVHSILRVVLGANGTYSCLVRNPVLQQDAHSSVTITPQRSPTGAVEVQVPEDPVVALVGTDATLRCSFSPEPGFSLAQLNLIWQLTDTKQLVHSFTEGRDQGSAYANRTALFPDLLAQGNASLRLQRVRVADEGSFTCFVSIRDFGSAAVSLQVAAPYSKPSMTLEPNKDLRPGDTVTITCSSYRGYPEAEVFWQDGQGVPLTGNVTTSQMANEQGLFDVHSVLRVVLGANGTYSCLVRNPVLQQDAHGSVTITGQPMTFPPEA
# T3: hB7H3-His (human, UniProt Q5ZPR3 29-461, limits assumed)
# T3 construct: not shown: His tag
# T3 sequence (looked up): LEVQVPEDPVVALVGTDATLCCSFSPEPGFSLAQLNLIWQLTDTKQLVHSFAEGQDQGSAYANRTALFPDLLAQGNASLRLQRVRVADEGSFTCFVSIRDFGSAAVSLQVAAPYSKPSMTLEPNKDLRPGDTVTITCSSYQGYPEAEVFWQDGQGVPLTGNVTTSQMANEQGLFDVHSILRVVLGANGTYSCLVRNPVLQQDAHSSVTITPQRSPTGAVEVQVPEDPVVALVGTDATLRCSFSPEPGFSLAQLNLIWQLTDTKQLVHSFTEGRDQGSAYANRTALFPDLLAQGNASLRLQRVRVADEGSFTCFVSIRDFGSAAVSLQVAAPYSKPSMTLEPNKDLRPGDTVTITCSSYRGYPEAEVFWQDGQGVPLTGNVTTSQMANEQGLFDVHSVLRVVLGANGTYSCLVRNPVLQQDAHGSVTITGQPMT
# T4: monkey B7H3-His (monkey)
# T4 chain: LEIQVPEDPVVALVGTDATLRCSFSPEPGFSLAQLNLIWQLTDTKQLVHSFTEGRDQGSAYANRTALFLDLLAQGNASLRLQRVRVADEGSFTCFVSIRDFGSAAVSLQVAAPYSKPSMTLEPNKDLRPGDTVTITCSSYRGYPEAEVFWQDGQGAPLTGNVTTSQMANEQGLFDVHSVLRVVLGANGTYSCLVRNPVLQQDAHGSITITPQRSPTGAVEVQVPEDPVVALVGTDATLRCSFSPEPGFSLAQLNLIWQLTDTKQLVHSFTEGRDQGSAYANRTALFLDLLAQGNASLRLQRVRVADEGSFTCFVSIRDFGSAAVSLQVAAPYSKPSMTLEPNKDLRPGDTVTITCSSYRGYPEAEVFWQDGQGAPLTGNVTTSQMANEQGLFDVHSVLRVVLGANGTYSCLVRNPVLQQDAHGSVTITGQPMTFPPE
# T5: human B7H3 (human, UniProt Q5ZPR3 29-466, limits assumed)
# T5 construct: also called human B7H3 protein
# T5 sequence (looked up): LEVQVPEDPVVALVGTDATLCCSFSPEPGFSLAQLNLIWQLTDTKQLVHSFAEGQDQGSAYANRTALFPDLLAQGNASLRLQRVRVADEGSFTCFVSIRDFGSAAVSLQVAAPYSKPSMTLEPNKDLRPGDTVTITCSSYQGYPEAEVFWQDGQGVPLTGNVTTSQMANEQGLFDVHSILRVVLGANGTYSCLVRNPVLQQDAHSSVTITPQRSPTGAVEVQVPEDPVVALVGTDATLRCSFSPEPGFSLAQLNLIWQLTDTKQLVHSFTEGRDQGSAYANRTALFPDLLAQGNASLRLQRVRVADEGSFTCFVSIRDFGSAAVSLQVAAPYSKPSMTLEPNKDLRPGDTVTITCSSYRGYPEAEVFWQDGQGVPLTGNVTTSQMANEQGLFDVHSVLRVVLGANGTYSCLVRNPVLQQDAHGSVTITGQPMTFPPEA
# T6: mouse B7H3-His (mouse, UniProt Q8VE98 29-244, limits assumed)
# T6 construct: also called recombinant mouse B7H3-His protein; not shown: His tag
# T6 sequence (looked up): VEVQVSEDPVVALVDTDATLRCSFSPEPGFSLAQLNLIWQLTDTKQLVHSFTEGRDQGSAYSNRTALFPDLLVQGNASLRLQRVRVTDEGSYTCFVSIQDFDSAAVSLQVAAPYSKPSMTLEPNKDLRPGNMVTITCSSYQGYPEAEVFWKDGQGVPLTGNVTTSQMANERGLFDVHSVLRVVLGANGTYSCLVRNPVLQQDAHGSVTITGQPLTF
# T7: B7H3 (CD276) on MC38-CD276+ cells
# T7 construct: whole, on cells; MC38-CD276KO cells served as the negative control; also called MC38-B7H3+
# T7 sequence (Q5ZPR3 1-534, species assumed, looked up): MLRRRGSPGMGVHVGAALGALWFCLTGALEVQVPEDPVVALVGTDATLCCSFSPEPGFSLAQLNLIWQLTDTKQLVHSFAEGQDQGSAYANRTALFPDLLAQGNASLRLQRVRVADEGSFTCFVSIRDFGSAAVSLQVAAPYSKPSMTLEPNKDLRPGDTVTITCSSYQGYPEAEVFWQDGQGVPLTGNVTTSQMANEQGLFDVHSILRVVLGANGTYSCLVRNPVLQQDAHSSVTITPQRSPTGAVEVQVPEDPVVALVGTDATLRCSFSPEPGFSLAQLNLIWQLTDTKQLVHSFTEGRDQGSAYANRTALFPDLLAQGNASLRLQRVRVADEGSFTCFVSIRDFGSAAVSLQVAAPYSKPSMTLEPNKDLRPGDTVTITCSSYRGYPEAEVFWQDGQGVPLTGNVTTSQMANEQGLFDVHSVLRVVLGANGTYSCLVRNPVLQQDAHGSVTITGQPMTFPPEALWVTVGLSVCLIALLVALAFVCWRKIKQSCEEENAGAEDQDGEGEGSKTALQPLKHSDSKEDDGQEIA
# What was measured:
# rat B7H3-His [1] = target: T1, rat B7H3-His; experiment: ELISA, purified VHH
# Summary of the method: (§1)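 Camel VHH nanobodies were isolated by phage panning on recombinant B7H3-Fc and then purified. Their binding to immobilised recombinant proteins (B7H3 fusion proteins and non-B7H3 control proteins) was measured by ELISA and recorded as the ELISA signal.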
# [2] = target: T2, recombinant human B7H3-Fc protein; experiment: ELISA, purified VHH
# Summary of the method: as §1
# Non-relevant antigen [3] = experiment: ELISA, purified VHH
# Summary of the method: as §1
# hB7H3-His = target: T3, hB7H3-His; experiment: ELISA, purified VHH
# Summary of the method: as §1
# monkey B7H3-His [4] = target: T4, monkey B7H3-His; experiment: ELISA, purified VHH
# Summary of the method: as §1
# rat B7H3-His [5] = target: T1, rat B7H3-His; experiment: phage ELISA, cross-species
# Summary of the method: (§2)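 Camel VHH phage were panned on recombinant B7H3-Fc protein for 3 rounds, using libraries from eight individual camels. Binding of the selected phage to immobilised antigens (human and other-species B7H3 or control proteins) was measured by phage ELISA and recorded as the ELISA signal.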
# Non-relevant antigen [6] = experiment: phage ELISA, cross-species
# Summary of the method: as §2
# human B7H3 = target: T5, human B7H3; experiment: phage ELISA, cross-species
# Summary of the method: as §2
# mouse B7H3-His = target: T6, mouse B7H3-His; experiment: phage ELISA, cross-species
# Summary of the method: as §2
# monkey B7H3-His [7] = target: T4, monkey B7H3-His; experiment: phage ELISA, cross-species
# Summary of the method: as §2
# PD-L1 = experiment: ELISA, purified VHH, cross-reaction
# [8] = target: T2, recombinant human B7H3-Fc protein; experiment: phage ELISA
# Summary of the method: as §2
# IgG control = experiment: phage ELISA
# Summary of the method: as §2
# [9] = target: T7, B7H3 (CD276) on MC38-CD276+ cells; experiment: flow cytometry on MC38-CD276+ cells, VHH at 0.5 ug/ml
# [10] = target: T7, B7H3 (CD276) on MC38-CD276+ cells; experiment: flow cytometry on MC38-CD276+ cells, VHH at 10 ug/ml
# [11] = target: T7, B7H3 (CD276) on MC38-CD276+ cells; experiment: flow cytometry on MC38-CD276+ cells, VHH at 2 ug/ml
# [12] = target: T7, B7H3 (CD276) on MC38-CD276+ cells; experiment: flow cytometry on MC38-CD276+ cells, VHH at 50 ug/ml
# PD-L1, sequence (Q9NZQ7 whole entry): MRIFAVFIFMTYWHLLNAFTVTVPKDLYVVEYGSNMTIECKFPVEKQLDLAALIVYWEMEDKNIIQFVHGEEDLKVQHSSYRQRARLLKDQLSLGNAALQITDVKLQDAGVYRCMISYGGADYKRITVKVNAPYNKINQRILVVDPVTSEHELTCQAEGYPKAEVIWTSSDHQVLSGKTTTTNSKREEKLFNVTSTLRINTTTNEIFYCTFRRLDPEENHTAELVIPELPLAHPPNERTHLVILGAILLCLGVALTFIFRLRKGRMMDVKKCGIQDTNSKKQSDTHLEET
Binder,ELISA signal (rat B7H3-His [1]),ELISA signal [2],ELISA signal (Non-relevant antigen [3]),ELISA signal (hB7H3-His),ELISA signal (monkey B7H3-His [4]),ELISA signal (rat B7H3-His [5]),ELISA signal (Non-relevant antigen [6]),ELISA signal (human B7H3),ELISA signal (mouse B7H3-His),ELISA signal (monkey B7H3-His [7]),ELISA signal (PD-L1),ELISA signal [8],ELISA signal (IgG control),Positive rates [9],Positive rates [10],Positive rates [11],Positive rates [12]
"RWH1 (VHH, Camel VHH; tag not described; also called camel antibody RWH1) VHH: AVQLVESGGGSVQAGGSLRLSCAASGMNLDNYVRGWLRQAPGSKCEFVSIIRRDGTTDYGDSVKGRFTISRDNAKNTVYLQMNSLKPDDTAVYYCAAIVVPRAAEYACDGLPYRGQGTQVTVSS",0.134,2.59,0.131,2.65,1.3,0.0951,0.0608,2.03,0.0738,0.0706,0.0753,2.75,0.136,,,,
"RWH5 (VHH, Camel VHH; tag not described; also called RWHS [sic]; camel antibody RWH5) VHH: AVQLVESGGGSVQAGGSLRLSCKASGYCMGWFRQAPGKEREGVAALNTEGGVTYYADSVKGRFSISRDNTNLYLQMNSLKPEDTAIYYCAADDRPTRCAVGSLYLPYTYRGQGTQVTVSS",,,,,0.0979,,,,,2.22,,,,,,,
"RWC3 (VHH, Camel VHH; tag not described; also called camel antibody RWC3) VHH: QVQLVESGGGLVQPGGSLSVSCAASGFTFSVYWFYWVRQAPRQGLEWVSTIASNGSTYYSDSVKGRFTISRDNAKNTVYLQMNSLKPEDTAVYYCVSDPDYYSDYERAYKFWAQGTQVTVSS",,2.34,,,,0.738,0.0654,2.14,0.0759,0.228,0.0454,2.42,0.0888,,,,
"RWD5 (VHH, Camel VHH; tag not described; also called RWDS [sic]; camel antibody RWD5) VHH: AVQLVESGGGLVQPGGSLSVSCAASGFTFSVYWFYWVRQAPRQGLEWVSTIASNGSTYYSDSVKGRFTISRDNAKNTVYLQMNSLKPEDTAVYYCVSDPDYYSDYEREYKFWAQGTQVTVSS",,2.37,,,,0.871,0.0583,2.13,0.0819,0.267,0.0471,2.5,0.0685,0.19%,44.9%,1.44%,88.9%
"RWD9 (VHH, Camel VHH; tag not described; also called camel antibody RWD9) VHH: EVQLVESGGGLVQPGGSLSVSCAASGFTFSVYWFYWVRQAPRQGLEWVSTIASNGSTYYSDSVKGRFTISRDNAKNTVYLQMNSLKPEDTAVYYCVSDPDYYSDYERAYKFWAQGTQVTVSS",,0.499,,,,0.778,0.113,2.21,0.0782,0.237,0.0438,2.43,0.0788,,,,
